Experimental data from patent US20250388623A1 (CHENGDU BRILLIANT INSPIRATION BIOTHERAPEUTICS, published 2025).
Bridge positions count the residues as written; N and C are the ends. Ends that are not written are not given here.

B1: SEQ ID NO: 33 (peptide)
peptide: Ac-TQDAEDNTASH-NH2
B2: SEQ ID NO: 36 (peptide)
peptide: Ac-TQDAEDNTVSFLQ-NH2
B3: SEQ ID NO: 41 (peptide)
peptide: TQDPEDN
modifications: Head-to-tail cyclization
B4: SEQ ID NO: 40 (peptide)
peptide: TQDAEDN
modifications: Head-to-tail cyclization
notes: cyclic peptide; also called TQDAEDN; cyclo[Thr-Gln-Asp-Ala-Glu-Asp-Asn]
B5: SEQ ID NO: 24 (peptide)
peptide: Ac-TQDAEDNTAS-NH2
B6: SEQ ID NO: 25 (peptide)
peptide: Ac-TQDAEDPTAS-NH2
B7: SEQ ID NO: 46 (peptide)
peptide: TQDPEDNTAS
modifications: Head-to-tail cyclization
notes: cyclic peptide
B8: SEQ ID NO: 26 (peptide)
peptide: Ac-TQDPEDNTAS-NH2
B9: SEQ ID NO: 50 (peptide)
peptide: YRVRFLAKENVTQDAEDN
notes: Printed as 'Without modification'; also called Positive control group
B10: SEQ ID NO: 45 (peptide)
peptide: QDAEDNT
modifications: Head-to-tail cyclization
notes: cyclic peptide; also called QDAEDNT; cyclo[Gln-Asp-Ala-Glu-Asp-Asn-Thr]
B11: SEQ ID NO: 17 (peptide)
peptide: Ac-TQDAEDNTV-NH2
B12: SEQ ID NO: 22 (peptide)
peptide: Ac-TQDAEDPTA-NH2
B13: SEQ ID NO: 47 (peptide)
peptide: Ac-TQDPAED-NH2
B14: SEQ ID NO: 06 (peptide)
peptide: Ac-TQDAEDN-NH2
notes: also called TQDAEDN
B15: SEQ ID NO: 14 (peptide)
peptide: Ac-TQDPEDN-NH2
notes: also called TQDPEDN
B16: SEQ ID NO: 42 (peptide)
peptide: TQDAEDNK
modifications: lactam 3-8
B17: SEQ ID NO: 05 (peptide)
peptide: Ac-QDAEDN-NH2
B18: SEQ ID NO: 04 (peptide)
peptide: Ac-TQDAED-NH2
B19: SEQ ID NO: 03 (peptide)
peptide: Ac-TQDPED-NH2
B20: SEQ ID NO: 31 (peptide)
peptide: Ac-TQDAEDNTASF-NH2
B21: SEQ ID NO: 23 (peptide)
peptide: Ac-QDAEDNTAS-NH2
B22: SEQ ID NO: 15 (peptide)
peptide: Ac-TQDAEDNT-NH2
B23: SEQ ID NO: 49 (peptide)
peptide: Ac-TQDAEDNTQD-NH2
B24: SEQ ID NO: 48 (peptide)
peptide: Ac-TQDPAEDN-NH2

Target: TSP-1 protein expressed by PMA-differentiated THP-1 macrophage-like cells (UniProt P07996 19-1170)
Test: cell-based or functional assay

Chain of TSP-1 protein expressed by PMA-differentiated THP-1 macrophage-like cells (P07996 19-1170 limits assumed): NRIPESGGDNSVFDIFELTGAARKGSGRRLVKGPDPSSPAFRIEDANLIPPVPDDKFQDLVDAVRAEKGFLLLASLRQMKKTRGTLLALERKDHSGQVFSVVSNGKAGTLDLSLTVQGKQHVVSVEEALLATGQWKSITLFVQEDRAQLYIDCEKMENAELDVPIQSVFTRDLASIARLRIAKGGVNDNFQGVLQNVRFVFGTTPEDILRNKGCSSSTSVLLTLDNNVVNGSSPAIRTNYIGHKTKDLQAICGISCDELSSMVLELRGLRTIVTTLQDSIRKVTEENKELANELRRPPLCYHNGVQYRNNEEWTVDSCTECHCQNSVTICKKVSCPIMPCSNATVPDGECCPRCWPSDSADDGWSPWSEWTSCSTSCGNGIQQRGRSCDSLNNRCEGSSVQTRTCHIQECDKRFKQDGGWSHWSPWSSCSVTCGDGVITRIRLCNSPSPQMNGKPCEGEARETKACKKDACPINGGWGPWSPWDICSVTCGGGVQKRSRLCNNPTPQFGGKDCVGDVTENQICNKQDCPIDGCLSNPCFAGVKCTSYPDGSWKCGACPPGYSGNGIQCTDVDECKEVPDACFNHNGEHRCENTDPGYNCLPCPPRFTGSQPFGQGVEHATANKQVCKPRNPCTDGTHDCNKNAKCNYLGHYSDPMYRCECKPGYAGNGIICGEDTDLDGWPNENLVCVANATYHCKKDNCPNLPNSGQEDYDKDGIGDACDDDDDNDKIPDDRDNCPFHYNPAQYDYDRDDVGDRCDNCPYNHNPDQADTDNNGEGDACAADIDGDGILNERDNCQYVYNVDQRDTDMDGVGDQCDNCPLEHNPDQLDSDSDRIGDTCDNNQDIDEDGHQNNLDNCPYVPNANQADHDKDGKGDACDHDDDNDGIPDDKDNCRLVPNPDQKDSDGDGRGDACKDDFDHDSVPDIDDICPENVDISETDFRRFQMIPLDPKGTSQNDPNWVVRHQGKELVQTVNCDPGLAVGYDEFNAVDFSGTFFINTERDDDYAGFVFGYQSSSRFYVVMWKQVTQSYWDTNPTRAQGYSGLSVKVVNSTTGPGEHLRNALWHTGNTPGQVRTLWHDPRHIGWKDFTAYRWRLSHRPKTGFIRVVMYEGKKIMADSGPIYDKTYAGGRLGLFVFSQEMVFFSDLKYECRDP

Q: B1 was tested. Which “Mean (relative fluorescence intensity), 293-TGFβ Res reporter cells” value (“Mean (relative fluorescence intensity)” below) did it give?
A: 0.67 ratio to negative control

Q: B2 was tested. Which “Mean (relative fluorescence intensity)” value did it give?
A: 0.83 ratio to negative control

Q: Which “Mean (relative fluorescence intensity)” value does the source give for B3 here?
A: 0.62 ratio to negative control

Q: Which “Mean (relative fluorescence intensity)” value does the source give for B4 here?
A: 0.77 ratio to negative control

Q: How did the “Mean (relative fluorescence intensity)” value turn out when B5 was run?
A: 0.57 ratio to negative control

Q: With B6 as the binder, how does the “Mean (relative fluorescence intensity)” value read?
A: 0.73 ratio to negative control

Q: How did the “Mean (relative fluorescence intensity)” value turn out when B7 was run?
A: 0.69 ratio to negative control

Q: With B8 as the binder, how does the “Mean (relative fluorescence intensity)” value read?
A: 0.68 ratio to negative control

Q: For B9, which “Mean (relative fluorescence intensity)” value is on record?
A: 0.84 ratio to negative control

Q: Which “Mean (relative fluorescence intensity)” value does the source give for B10 here?
A: 0.52 ratio to negative control

Q: With B11 as the binder, how does the “Mean (relative fluorescence intensity)” value read?
A: 0.78 ratio to negative control

Q: How did the “Mean (relative fluorescence intensity)” value turn out when B12 was run?
A: 0.74 ratio to negative control

Q: With B13 as the binder, how does the “Mean (relative fluorescence intensity)” value read?
A: 0.8 ratio to negative control

Q: Which “Mean (relative fluorescence intensity)” value does the source give for B14 here?
A: 0.65 ratio to negative control

Q: How did the “Mean (relative fluorescence intensity)” value turn out when B15 was run?
A: 0.7 ratio to negative control

Q: B16 was tested. Which “Mean (relative fluorescence intensity)” value did it give?
A: 0.67 ratio to negative control

Q: Which “Mean (relative fluorescence intensity)” value does the source give for B17 here?
A: 0.83 ratio to negative control

Q: Which “Mean (relative fluorescence intensity)” value does the source give for B18 here?
A: 0.77 ratio to negative control

Q: Which “Mean (relative fluorescence intensity)” value does the source give for B19 here?
A: 0.7 ratio to negative control

Q: For B20, which “Mean (relative fluorescence intensity)” value is on record?
A: 0.79 ratio to negative control

Target: T1, TSP-1 protein (novoprotein, Catalog No. CU45) (UniProt P07996 19-1170, limits assumed)
T1 construct: Bought protein coated on the ELISA plate; also called Thrombospondin-1
Test: competition ELISA, TSP-1 coated, CD36-Fc as competitor, peptide 0-100 µM
Protocol: (§1) ELISA assay was performed to detect the ability of the polypeptides to block the binding of TSP-1 protein to CD36, a TSP-1 receptor protein. TSP-1 protein (novoprotein, Catalog No. CU45) was diluted to 2 μg/mL using 100 mM carbonate buffer and added to sample wells (100 μL/well) of a 96-well ELISA plate (Thermo, Catalog No. 437111), and incubated overnight at 4° C.; after washing the plate twice using 1×PBST wash solution, 200 μL of 1.5% BSA (Sigma, Catalog No. B2064) was added to each well, and incubated at 37° C. for 2 h; after washing the plate 3 times using 1×PBST wash solution, the analytes were added (100 μL/well, 3 replicate wells; for the control group, 0.25 μg/mL of Fc-tagged CD36 protein (R&D Systems, Catalog No. 1955-CD-050); and for the polypeptide-treated groups, a mixture containing Fc-tagged CD36 protein and polypeptide at final concentrations of 0.25 μg/mL and 100 μM, respectively), and incubated at 37° C. for 3 h. After washing the plate 5 times using 1×PBST wash solution, a 1:500 dilution solution of FITC-labeled anti-Fc-tagged antibody (Beyotime, Catalog No. A0556) was added, and incubated for 1 h at 37° C.; after washing the plate 5 times using 1×PBST wash solution, a multifunctional ELISA instrument (TECAN, model: Infinite 200 Pro) was used to detect the intensity of FITC fluorescence signal in each sample well. The ability of the polypeptides to block CD36 binding to TSP-1 protein (Table 2-1) was assessed by calculating the ratio of the fluorescence signal from the polypeptide-treated groups to that of the control group, allowing for the determination of the blocking rate of the polypeptides in inhibiting CD36 binding to TSP-1 protein, i.e., (fluorescence signal of the control group-fluorescence signal of the polypeptide-treated group)/fluorescence signal of the control group×100%. Based on the blocking rate results obtained at the single concentration and on the polypeptide molecule properties, the preferred polypeptide molecules were assayed for concentration dependence (at 0 μM, 0.5 μM, 1 μM, 5 μM, 10 μM, and 100 μM), and IC₅₀ values of the polypeptides for blocking CD36 binding to TSP-1 protein were determined to further assess the abilities of the preferred polypeptide molecules to block the binding of CD36 to TSP-1 (Table 2-2).

T1 sequence (P07996 19-1170 limits assumed): as above

Q: Which IC50 does the source give for B1 here?
A: 14.3 µM

Q: For B21, which IC50 is on record?
A: 22.9 µM

Q: How did the IC50 turn out when B2 was run?
A: 4.85 µM

Q: How did the IC50 turn out when B4 was run?
A: 7.7 µM

Q: With B5 as the binder, how does the IC50 read?
A: 10.6 µM

Q: B6 was tested. Which IC50 did it give?
A: 7.4 µM

Q: With B7 as the binder, how does the IC50 read?
A: 1.4 µM

Q: Which IC50 does the source give for B8 here?
A: 3.4 µM

Q: How did the IC50 turn out when B9 was run?
A: 10.6 µM

Q: For B10, which IC50 is on record?
A: 5.96 µM

Q: Which IC50 does the source give for B22 here?
A: 5.65 µM

Q: With B23 as the binder, how does the IC50 read?
A: 10.1 µM

Q: With B12 as the binder, how does the IC50 read?
A: 7.2 µM

Q: Which IC50 does the source give for B14 here?
A: 12.7 µM

Q: B15 was tested. Which IC50 did it give?
A: 4.76 µM

Q: With B24 as the binder, how does the IC50 read?
A: 11.7 µM

Target: T1, TSP-1 protein (novoprotein, Catalog No. …)
Test: competition ELISA, TSP-1 coated, CD36-Fc 0.25 µg/mL as competitor, peptide 100 µM
Protocol: as §1

Q: How did the “Blocking rate (Mean, %)” value turn out when B1 was run?
A: 21.4%

Q: How did the “Blocking rate (Mean, %)” value turn out when B21 was run?
A: 22.8%

Q: Which “Blocking rate (Mean, %)” value does the source give for B2 here?
A: 23.1%

Q: For B4, which “Blocking rate (Mean, %)” value is on record?
A: 37.5%

Q: B5 was tested. Which “Blocking rate (Mean, %)” value did it give?
A: 32.6%

Q: With B6 as the binder, how does the “Blocking rate (Mean, %)” value read?
A: 33%

Q: B7 was tested. Which “Blocking rate (Mean, %)” value did it give?
A: 56.1%

Q: Which “Blocking rate (Mean, %)” value does the source give for B8 here?
A: 53.8%

Q: With B9 as the binder, how does the “Blocking rate (Mean, %)” value read?
A: 23.4%

Q: B10 was tested. Which “Blocking rate (Mean, %)” value did it give?
A: 46%

Q: For B22, which “Blocking rate (Mean, %)” value is on record?
A: 30.6%

Q: With B23 as the binder, how does the “Blocking rate (Mean, %)” value read?
A: 30.2%

Q: For B12, which “Blocking rate (Mean, %)” value is on record?
A: 40.9%

Q: Which “Blocking rate (Mean, %)” value does the source give for B14 here?
A: 17.7%

Q: How did the “Blocking rate (Mean, %)” value turn out when B15 was run?
A: 27.9%

Q: Which “Blocking rate (Mean, %)” value does the source give for B24 here?
A: 29.7%
